T1: Myo5 SH3 (MYO5_YEAST), Q04439
T1 chain: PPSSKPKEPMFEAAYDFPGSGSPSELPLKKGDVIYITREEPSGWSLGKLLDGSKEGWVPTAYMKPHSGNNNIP


Target: T1, Myo5 SH3 (MYO5_YEAST), Q04439
Assay: SPOT array

Binder | normalised SPOT signal, Boehringer light units (BLU); mean over the file's lines of this peptide
LPAPPPPPRRGPA [YOR181W 341-353] | 43400
LLISHLFPTNPEFS [YER155C 650-663] | 414
LLLPLLLPPLPSVK [YKL147C 80-93] | 6470
LEFSHYAPTAPHVQ [YLR069C 734-747] | 103
LLQSLRLPTTPTER [YCL040W 391-404] | 125
MASFLPVPEKPNLI [YNL206C 125-138] | 161
LPTALLSPLRPSLS [YCL051W 199-212] | 115
MEEPFIWPEEPRPD [YDR405W 164-177] | 79.7
MLKALFTPLIPVSF [YML068W 248-261] | 257
NASLLRDPSAPYAH [YER064C 198-211] | 134
LFKRLPVPAPPMDS [YNL238W 106-119] | 145
MASGLLPPIQPGFD [YJR106W 230-243] | 223
NASAMPAPYMPYYY [YIR010W 139-152] | 226
LWKPLVYPTSPSEH [YFR019W 1841-1854] | 185
MLFSWPYPEAPIEG [YPL087W 1-14] | 126
NAIAMALPNEPYPA [YLR342W 137-150] | 96.8
LASPFHDPILPRRT [YHL028W 522-535] | 288
LLAEHNGPKLPHIP [YKR021W 416-429] | 198
LELLLSLPTGPESK [YBR172C 710-723] | 143
LLAKLPLPRDPRVA [YPR183W 188-201] | 344
LLYLMTYPQQPMVK [YOR207C 724-737] | 162

Binder | normalised SPOT signal, Boehringer light units (BLU); mean over the file's lines of this peptide
MFELLSHPKVPVGM [YHR197W 602-615] | 268
LPAVFSAPIRPDIV [YBR031W 22-35] | 202
NEAPMLSPQRPYST [YLR006C 162-175] | 111
NALKLIHPFMPFIS [YGR094W 895-908] | 170
MANILYYPQKPLGT [YOR151C 792-805] | 152
MFTYFQEPPFPDLL [YPL063W 167-180] | 239
LPQQHLSPLIPIAI [YGL035C 132-145] | 45.3
LAKDLIVPRRPEWN [YGL099W 130-143] | 117000
NAIEMALPNDPYPA [YGR032W 156-169] | 87.2
LPEELMRPKVPELL [YPL012W 957-970] | 145
LLKGYIPPYKPIVK [YMR104C 608-621] | 169
LPFMYLLPRFPSHI [YGR065C 182-195] | 455
LEDALHVPTNPEIL [YDR416W 508-521] | 191
MAKSFADPRVPQPM [YPR112C 91-104] | 172
MLNEHGVPVVPSRE [YER014W 436-449] | 199
NALGLDPPPSPEDP [YLR203C 42-55] | 241
LPTGYYEPMKPSSL [YLL016W 406-419] | 165
LWILYMSPDVPSAS [YPL058C 1310-1323] | 253
MFNLLQKPEQPHQN [YLR291C 121-134] | 204
LALLMTDPDAPSRT [YLR179C 73-86] | 178
NEDTFLPPPPPPPS [YHR165C 44-57] | 20400
